# In patent publication US20210139589A1 (APEXIGEN, published 2021):
# T1: human VISTA expressed on the cell surface (HEK293 cells transfected with human VISTA cDNA); native on human … (human, UniProt Q9H7M9 33-311)
# T1 construct: whole, on cells; also called PD-1H
# T1 sequence (looked up): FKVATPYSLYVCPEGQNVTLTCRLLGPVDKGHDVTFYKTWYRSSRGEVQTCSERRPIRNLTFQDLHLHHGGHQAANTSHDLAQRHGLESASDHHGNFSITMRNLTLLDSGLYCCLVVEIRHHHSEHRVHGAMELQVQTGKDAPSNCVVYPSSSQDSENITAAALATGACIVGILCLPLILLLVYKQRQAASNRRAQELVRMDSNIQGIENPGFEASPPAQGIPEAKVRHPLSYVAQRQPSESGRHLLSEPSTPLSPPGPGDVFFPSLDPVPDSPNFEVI
# Legend:
# [1] = molecular target: T1, human VISTA expressed on the cell …; assay: flow cytometry on HEK293 cells transfected with human VISTA, detection with anti-human Ig; EC50 table under the graph
# Protocol: In order to examine the ability of the 7 humanized anti-VISTA antibodies to bind to cell surface expressed VISTA, HEK293 cells were transfected with human VISTA cDNA for 24 hours using Fugene 6 transfection reagent. Cells were harvested by trypsinization, re-suspended in FACS buffer and plated in 96-well plates. Cells were incubated with the concentration of anti-VISTA antibodies indicated in FIG. 5 for 30 minutes on ice. Antibodies were detected using anti-human Ig antibodies and binding was assessed on the MACSQuant flow cytometer (FIG. 5).
# [2] = molecular target: T1, human VISTA expressed on the cell …; assay: method not stated; table follows flow cytometry on HEK293 cells transfected with human VISTA
Binder,EC50 [1] [nM],Kd [2] [nM]
"humanized anti-VISTA antibody 29G7-HZD2 (antibody, human IgG1, kappa, V domains shown, kappa light chain) VH: EVQLVESGGGLVQPGGSLRLSCAASGFSLSSYAMGWVRQAPGKGLEWVGIIIVSGNIYYASWAKGRFTISRDNSKNTLYLQMNSLRAEDTAVYYCARGDGYTYGLWGQGTLVTVSS VL: DIQMTQSPSTLSASVGDRVTITCQASQSVYSRYLAWYQQKPGKAPKLLIYSASTLASGVPSRFSGSGSGTEFTLTISSLQPDDFATYYCQGTFYIPDYIDGFGGGTKVEIKR",0.463,0.281
"humanized anti-VISTA antibody 14F1-HZD2 (antibody, human IgG1, kappa, V domains shown, kappa light chain) VH: EVQLLESGGGLVQPGGSLRLSCAASGFSFSSSYYMCWVRQAPGKGLEWVACFYAGFSGSTYYASWAKGRFTISRDNSKNTLYLQMNSLRAEDTAVYYCAKGASTYGYTGYDYAGDYFILWQPGTLVTVSS VL: DIQMTQSPSSVSASVGDRVTITCQASQNIYSNLAWYQQKPGKAPKLLIYAASNLASGVPSRFSGSGSGTDFTLTISSLQPEDFATYYCQSAYYSSSADSYNAFGGGTKVEIKR",2.95,2.19
"humanized anti-VISTA antibody 3A5-HZD (antibody, human IgG1, kappa, V domains shown, kappa light chain) VH: EVQLVESGGGLVQPGGSLRLSCAASGFSLSSENWICWVRQAPGKGLEWVGCICGANGGSAYHANWVNGRFTISRDNSKNTLYLQMNSLRAEDTAVYYCARAAGVSNAYYFDLWGQGTLVTVSS VL: DIQMTQSPSSVSASVGDRVTITCQASQYIYINLAWYQQKPGKAPKLLIYDASDLASGVPSRFSGSGSGTDFTLTISSLQPEDFATYYCQCTYGGSTYGNAFGGGTKVEIKR",0.483,0.293

# Further binders by falling EC50 [1], results first:
EC50 [1] [nM],Kd [2] [nM],Binder
2.83,2.2,"humanized anti-VISTA antibody 14D8-HZD2 (antibody, human IgG1, kappa, V domains shown, kappa light chain) VH: EVQLVESGGGLVQPGGSLRLSCAASGFDLSSAYYMCWVRQAPGKGLEWVGCIATGSGSTYYASWAKGRFTISRDNSKNTLYLQMNSLRAEDTAVYYCARAPYYSYDGYDYALNLWGQGTLVTVSS VL: DIQMTQSPSSVSASVGDRVTITCQASEDIVTYLAWYQQKPGKAPKLLIYAASTLASGVPSRFSGSGSGTDFTLTISSLQPEDFATYYCQQTYNYADTDNAFGGGTKVEIKR"
1.84,1.35,"humanized anti-VISTA antibody 41A11-HZD2 (antibody, human IgG1, kappa, V domains shown, kappa light chain) VH: EVQLLESGGGLVQPGGSLRLSCAASGFSFSSSYYMCWVRQAPGKGLEWVGCFYAGFSGGTYYASWAKGRFTISRDNSKNTLYLQMNSLRAEDTAVYYCAKGANTYGYTGYDYAGDYFTLWGQGTLVTVSS VL: DIQMTQSPSTLSASVGDRVTITCQASQNIGSNLAWYQQKPGKAPKLLIYAASNLESGVPSRFSGSGSGTEFTLTISSLQPDDFATYYCQSAYYSSVDSYNTFGGGTKVEIKR"
1.75,1.31,"humanized anti-VISTA antibody 2D12-HZD3 (antibody, human IgG1, kappa, V domains shown, kappa light chain) VH: EVQLVESGGGLVQPGGSLRLSCAASGIDLSSYAMGWVRQAPGKGLEWVGIISSSGSAFYASWAKGRFTISRDNSKNTLYLQMNSLRAEDTAVYYCARHYAGYTTPYYFNFWGQGTLVTVSS VL: AIQMTQSPSSLSASVGDRVTITCQASENIYSNLAWYQQKPGKAPKVLIYAASDLASGVPSRFSGSGSGTDFTLTISSLQPEDFATYYCQQGFSSSNVDNAFGGGTKVEIKR"
0.477,0.295,"humanized anti-VISTA antibody 29G7-HZD4 (antibody, human IgG1, kappa, V domains shown, kappa light chain) VH: EVQLVESGGGLVQPGGSLRLSCAASGFSLSSYAMGWVRQAPGKGLEWVGIIIVSGNIYYASWAKGRFTISRDNSKNTLYLQMNSLRAEDTAVYYCARGDGYTYGLWGQGTLVTVSS VL: EIVMTQSPATLSLSPGERATLSCQASQSVYSRYLAWYQQKPGQAPRLLIYSASTLASGIPARFSGSGSGTDFTLTISSLQPEDFAVYYCQGTFYIPDYIDGFGGGTKVEIKR"
